Results published in paper doi:10.1101/2021.07.08.451529 (bioRxiv, 2021).

B1: recombinant C. elegans cytoplasmic malate dehydrogenase MDH-1 (F46E10.10) (enzyme)
chain: MSAPLRVLVTGAAGQIGYSIVIRIADGTVFGKEQPVELVLLDVPQCSNILEGVVFELQDCALPTLFSVVAVTDEKSAFTGIDYAFLVGAMPRREGMERKDLLAANVKIFKSQGKALAEYAKPTTKVIVVGNPANTNAFIAAKYAAGKIPAKNFSAMTRLDHNRALAQLALKTGTTIGNVKNVIIWGNHSGTQFPDVTHATVNKNGTETDAYAAVGDNAFLQGPFIATVQKRGGVIIEKRKLSSAMSAAKAACDHIHDWHFGTKAGQFVSMAVPSDGSYGIPQGLIFSFPVTIEGGEWKIVQGLSFDDFAKGKIAATTKELEEERDDALKACDDANIA

Key:
[1] = molecular target: recombinant C. elegans mitochondrial malate dehydrogenase MDH-2 (F20H11.3), mitochondrial import sequence removed (C. elegans); experiment: SEC
SEC = molecular target: the molecule itself; experiment: SEC

Molecule	stoichiometry N [1]	stoichiometry N (SEC)
recombinant C. elegans mitochondrial malate dehydrogenase MDH-2 (F20H11.3), mitochondrial import sequence removed (enzyme)	2	
B1		2
